{
  "source": "paper doi:10.1101/2022.11.26.518022",
  "about": "(bioRxiv, 2022)",
  "key": {"Unr CSD78 (A756-K922)": {"biological_target": "T1, Unr CSD78 (A756-K922) (Drosophila, UniProt B7Z0E2 756-922)", "T1 sequence (looked up)": "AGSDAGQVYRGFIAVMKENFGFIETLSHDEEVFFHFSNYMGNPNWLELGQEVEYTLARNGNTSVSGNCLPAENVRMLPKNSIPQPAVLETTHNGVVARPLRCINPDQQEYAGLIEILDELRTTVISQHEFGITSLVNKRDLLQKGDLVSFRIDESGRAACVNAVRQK", "assay": "NMR titration"}, "Unr CSD789 (A756-D990)": {"biological_target": "T2, Unr CSD789 (A756-D990) (Drosophila, UniProt B7Z0E2 756-990)", "T2 sequence (looked up)": "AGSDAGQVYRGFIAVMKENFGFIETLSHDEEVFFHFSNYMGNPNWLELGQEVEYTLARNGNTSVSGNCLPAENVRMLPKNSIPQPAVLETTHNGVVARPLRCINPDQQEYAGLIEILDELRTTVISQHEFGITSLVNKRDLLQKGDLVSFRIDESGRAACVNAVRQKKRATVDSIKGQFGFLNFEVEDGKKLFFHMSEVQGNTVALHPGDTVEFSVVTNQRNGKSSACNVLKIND", "assay": "NMR titration"}},
  "data": [
    {"binder": "pAbp RRM3 (G176-A263) (domain or fragment) not shown", "values": [
      {"measurement": "binding result", "setting": "Unr CSD78 (A756-K922)", "value": "binds"},
      {"measurement": "binding result", "setting": "Unr CSD789 (A756-D990)", "value": "binds"}
    ]}
  ]
}
